Assay results as given in the supplement of paper PMC9732359.
± gives the uncertainty stated by the source.

Assay: protein stability index of a GFP-peptide fusion (yeast GPS) (PSI 1-4); higher = more stable; sorted into four equal gates, so the index is relative within each strain
Procedure, shortened: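 Yeast carrying a pooled library were grown to mid-log phase in leucine-free medium. Each library plasmid expresses Cherry and has a tiled 17-residue yeast protein peptide fused downstream of GFP. Cells were sorted into four equal gates by GFP/Cherry ratio, and plasmids from each gate were PCR-amplified, Illumina-sequenced and assigned to strains by barcode. Summing, across gates, the read frequency times the gate number gave each peptide's protein stability index.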

Row | Sequence | protein stability index (doa10∆) | protein stability index (pdr5∆) | protein stability index (san1∆) | protein stability index (ubr1∆)
1 | YISFIKDDRFVPVRKFK [RPN2] | 2.41 ± 0.048 | 2.82 ± 0.039 | 2.96 ± 0.041 | 2.85 ± 0.031
2 | YISKIGEKIDSNKPIFL [SWI1] | 3.02 ± 0.084 | 2.86 ± 0.06 | 3.01 ± 0.07 | 3.19 ± 0.09
3 | YITLKATFLKDDLPYYV [QCR2] | 2.42 ± 0.047 | 2.17 ± 0.049 | 2.51 ± 0.054 | 2.44 ± 0.039
4 | YKAQADTFYMNVESVGS [RPB3] | 2.75 ± 0.088 | 2.34 ± 0.058 | 2.98 ± 0.068 | 3.07 ± 0.079
5 | YKCTAAMEKYLLSKSKI [MTW1] | 2.21 ± 0.038 | 2.58 ± 0.056 | 2.44 ± 0.049 | 2.69 ± 0.03
6 | YKEIRDVSRVAAVETLY [RPL20A] | 1.95 ± 0.067 | 2.19 ± 0.081 | 1.75 ± 0.17 | 1.64 ± 0.069
7 | YKKSTENESTNYQYKIQ [MED7] | 2.58 ± 0.046 | 2.48 ± 0.045 | 2.41 ± 0.055 | 2.59 ± 0.035
8 | YKNHELLKLERKKTEAV [SNF2] | 3.14 ± 0.081 | 3.17 ± 0.074 | 3.08 ± 0.05 | 3.13 ± 0.064
9 | YLADDIDADSLEDIYTS [RPL5] | 2.68 ± 0.095 | 1.96 ± 0.08 | 2 ± 0.08 | 2.37 ± 0.065
10 | YLEELQRKKQSDVLRFL [RPL15A] | 1.38 ± 0.16 | 2.25 ± 0.21 | 1.72 ± 0.26 | 1.5 ± 0.097
11 | YLHQNWVLHRDLKPANI [SSN3] | 2.23 ± 0.12 | 2.74 ± 0.13 | 2.72 ± 0.23 | 2.38 ± 0.14
12 | YLINGKRFKRKDNAKIS [SRP68] | 1.36 ± 0.075 | 1.58 ± 0.096 | 1.75 ± 0.12 | 1.63 ± 0.049
13 | YLKDNITLLTRQRELLI [GRR1] | 2.15 ± 0.061 | 2.25 ± 0.069 | 1.84 ± 0.076 | 1.76 ± 0.052
14 | YLLTQQQIWKSPNFKNY [SOH1] | 1.73 ± 0.047 | 1.62 ± 0.05 | 1.18 ± 0.081 | 2.19 ± 0.03
15 | YLQETAISGKKTTYYYY [RPC82] | 2.77 ± 0.079 | 3.02 ± 0.14 | 2.84 ± 0.057 | 3.07 ± 0.075
16 | YMDCLLYDLRASYAKIE [SNU114] | 1.84 ± 0.074 | 2.32 ± 0.076 | 1.81 ± 0.095 | 1.74 ± 0.092
17 | YMQRTVEEAHDFNMKLA [RPB2] | 3.09 ± 0.098 | 3.04 ± 0.1 | 3.02 ± 0.075 | 2.99 ± 0.062
18 | YMRKQVGVGKLNKLYGG [RPS19A] | 2.99 ± 0.16 | 2.48 ± 0.17 | 2.89 ± 0.14 | 3.41 ± 0.12
19 | YNILGNLGIPKIAYRGV [SSN2] | 2.55 ± 0.12 | 2.48 ± 0.12 | 1.55 ± 0.25 | 1.89 ± 0.1
20 | YNMYDAYGNWFNGLKPL [PRP8] | 2.93 ± 0.06 | 3.36 ± 0.093 | 2.9 ± 0.11 | 3.13 ± 0.048
21 | YNTRKNAVTAAAANNNI [GAL11] | 2.19 ± 0.046 | 2.52 ± 0.044 | 2.67 ± 0.05 | 2.46 ± 0.029
22 | YPLLIRMSYGSHDKKTK [SRP14] | 2.61 ± 0.06 | 2.49 ± 0.069 | 2.57 ± 0.043 | 2.6 ± 0.053
23 | YPLWVMAKQLIRLANES [CSN12] | 2.08 ± 0.07 | 1.41 ± 0.047 | 1.34 ± 0.17 | 1.4 ± 0.059
24 | YPSKTLKTDGVRAVSIT [FAS2] | 2.12 ± 0.078 | 2.3 ± 0.087 | 2 ± 0.091 | 2.23 ± 0.061
25 | YPVRIPRLDTSKEFSAY [YJR042W/NUP85] | 2.84 ± 0.077 | 2.4 ± 0.061 | 2.51 ± 0.075 | 2.91 ± 0.058
26 | YQELFIQPKNSDDQQEA [YML103C/NUP188] | 2.68 ± 0.066 | 2.31 ± 0.061 | 2.71 ± 0.053 | 2.64 ± 0.054
27 | YQKKQYKDSLALINDLL [RPN6] | 2.4 ± 0.26 | 2.68 ± 0.19 | 1.82 ± 0.21 | 2.86 ± 0.13

Row | Sequence | protein stability index (doa10∆) | protein stability index (pdr5∆) | protein stability index (san1∆) | protein stability index (ubr1∆)
28 | YQLNDRNVTKGDIVRML [SMC3] | 2.72 ± 0.24 | 3.03 ± 0.17 | 2.84 ± 0.14 | 3.02 ± 0.11
29 | YQSLKQIVQVLKQPPFQ [SSN8] | 1.43 ± 0.082 | 2.22 ± 0.11 | – | 1.46 ± 0.097
30 | YQSRGIDAMKAVAEAYN [RPN6] | 2.87 ± 0.088 | 3.1 ± 0.083 | 2.81 ± 0.077 | 2.65 ± 0.045
31 | YQTRARQKARTDAHTPL [RPR2] | 3.29 ± 0.1 | 3.14 ± 0.09 | 3.32 ± 0.058 | 3.27 ± 0.078
32 | YQVDEDVKSSLSKVFSD [YJL039C/NUP192] | 3.23 ± 0.17 | 3.42 ± 0.14 | 3.33 ± 0.17 | 2.93 ± 0.22
33 | YQVEYAFKATNQTNINS [SCL1] | 2.97 ± 0.072 | 3.19 ± 0.056 | 2.99 ± 0.081 | 3.06 ± 0.073
34 | YQWRDLIARRDDESPRF [RRP6] | 3.23 ± 0.077 | 3.42 ± 0.067 | 3.24 ± 0.057 | 3.26 ± 0.068
35 | YRKTEGIFEKAKAKAVT [YMR153W/NUP53] | 2.56 ± 0.09 | 2.54 ± 0.12 | 2.65 ± 0.13 | 2.48 ± 0.075
36 | YRPLTPSSEVYSPIEKE [RRP6] | 2.74 ± 0.071 | 3.03 ± 0.064 | 2.69 ± 0.073 | 2.91 ± 0.066
37 | YRSHIFATNEERQMNFL [SWI3] | 3.24 ± 0.091 | 2.69 ± 0.081 | 2.59 ± 0.081 | 2.72 ± 0.051
38 | YSEHLKPYDINVVLVTN [DIS3] | 1.77 ± 0.071 | 2.98 ± 0.094 | 2.86 ± 0.066 | 2.47 ± 0.055
39 | YSIALSNVAAIFKGIGG [GAL11] | 1.52 ± 0.08 | 1.55 ± 0.076 | 1.38 ± 0.18 | 1.48 ± 0.048
40 | YSNEPFNTNFDDEFGDL [SNF6] | 3.02 ± 0.1 | 3 ± 0.093 | 2.99 ± 0.059 | 3.06 ± 0.042
41 | YSPIEKESPWKILMYQY [RRP6] | 1.75 ± 0.063 | 1.89 ± 0.062 | 1.35 ± 0.11 | 1.44 ± 0.054
42 | YSPSNEISISFDVNNID [YDL116W/NUP84] | 2.4 ± 0.095 | 2.62 ± 0.071 | 2.31 ± 0.12 | 2.58 ± 0.067
43 | YSPTSPSYSPTSPGYSP [RPO21] | 2.8 ± 0.044 | 2.94 ± 0.037 | 2.95 ± 0.039 | 2.95 ± 0.034
44 | YSPTSPSYSPTSPSYSP [RPO21] | 2.756 ± 0.027 | 2.976 ± 0.026 | 2.87 ± 0.024 | 2.868 ± 0.02
45 | YSQSPPRSPGRSPTRRL [SMC4] | 2.57 ± 0.15 | 3.19 ± 0.11 | 2.98 ± 0.089 | 3.04 ± 0.11
46 | YSTCPSETDLNDIPLGS [SRB8] | 2.52 ± 0.13 | 2.72 ± 0.18 | 2.36 ± 0.14 | 2.47 ± 0.078
47 | YSVLLESPLSVAIQQGD [YML103C/NUP188] | 1.23 ± 0.091 | 1.16 ± 0.063 | 1.2 ± 0.17 | 1.19 ± 0.077
48 | YTEFIDSFIEKIIPKDI [ITC1] | 2.79 ± 0.12 | 2.11 ± 0.1 | 1.76 ± 0.12 | 1.81 ± 0.053
49 | YTEQFQHYKNNSISSQP [SSN2] | 2.76 ± 0.14 | 2.95 ± 0.11 | 3.09 ± 0.15 | 2.98 ± 0.1
50 | YTFKTSMRVKPSASLKL [YMR129W/POM152] | 2.42 ± 0.16 | 2.6 ± 0.11 | 2.31 ± 0.14 | 2.8 ± 0.097
51 | YVDFVPMYKELWINYIK [POP4] | 2.33 ± 0.065 | 2.42 ± 0.056 | 2.62 ± 0.068 | 2.7 ± 0.047
52 | YVQVRQPIFVAHTAGRY [RPS5] | 1.7 ± 0.064 | 1.84 ± 0.059 | 1.89 ± 0.11 | 1.74 ± 0.068
53 | YYNEISRDLDISSSTQC [POP6] | 1.95 ± 0.091 | 2.56 ± 0.073 | 2.25 ± 0.093 | 2.3 ± 0.043
54 | YYYNTKIYKLENGERKL [YMR129W/POM152] | 3.03 ± 0.05 | 3.26 ± 0.069 | 3.1 ± 0.069 | 3.18 ± 0.04
